Measured values from patent publication US20110177998A1 (COMPUGEN, published 2011).
Positions of bridges follow the written chain, without caps; N, C: chain ends. Chains are numbered I, II in the order given. No end group written: not given here.

T1: LGR7 (RXFP1) (human, UniProt Q9HBX9 1-757)
T1 sequence (looked up): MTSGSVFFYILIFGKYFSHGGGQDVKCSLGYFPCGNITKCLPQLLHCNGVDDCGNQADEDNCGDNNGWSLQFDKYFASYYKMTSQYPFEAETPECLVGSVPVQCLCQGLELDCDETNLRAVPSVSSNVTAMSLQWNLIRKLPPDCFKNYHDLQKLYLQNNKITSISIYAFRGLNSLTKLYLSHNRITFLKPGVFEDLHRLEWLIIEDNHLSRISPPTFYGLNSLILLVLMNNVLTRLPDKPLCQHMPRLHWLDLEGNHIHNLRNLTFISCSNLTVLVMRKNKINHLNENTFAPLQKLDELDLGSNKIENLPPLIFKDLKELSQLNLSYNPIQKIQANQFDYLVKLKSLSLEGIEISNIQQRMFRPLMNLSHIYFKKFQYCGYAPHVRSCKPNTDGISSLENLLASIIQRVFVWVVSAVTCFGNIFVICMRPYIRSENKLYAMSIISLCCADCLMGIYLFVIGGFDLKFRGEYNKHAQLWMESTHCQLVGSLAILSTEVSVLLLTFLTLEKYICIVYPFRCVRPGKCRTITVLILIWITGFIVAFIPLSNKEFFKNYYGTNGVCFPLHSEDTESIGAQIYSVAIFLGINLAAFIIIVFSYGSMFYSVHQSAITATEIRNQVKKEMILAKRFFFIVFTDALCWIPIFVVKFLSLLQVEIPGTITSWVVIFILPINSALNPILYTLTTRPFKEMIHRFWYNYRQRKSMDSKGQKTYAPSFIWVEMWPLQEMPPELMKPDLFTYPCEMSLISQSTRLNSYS

B1: H2 Relaxin (ligand)
chain 1: QLYSALANKCCHVGCTKRSLARFC
chain 2: DSWMEEVIKLCGRELVRAQIAICGMSTWS
modifications: disulfide I:10-I:15, I:11-II:11, I:24-II:23; not fully specified (some residues); ends not checked
B2: Peptide P59C13V-Amide (amide) (peptide)
peptide: GQKGQVGPPGAAVRRAYAAFSV-NH2
notes: Synthetic peptide, the C-terminally amidated form of P59C13V; also called P59-Amide; P59 Amide

Experiments:
LGR7 (RXFP1) = biological target: T1, LGR7 (RXFP1); experiment: cell-based or functional assay
LGR8 (RXFP2) [1] = biological target: T2, LGR8 (RXFP2) (human, UniProt Q8WXD0 1-754); experiment: cell-based or functional assay
T2 sequence (Q8WXD0 whole entry): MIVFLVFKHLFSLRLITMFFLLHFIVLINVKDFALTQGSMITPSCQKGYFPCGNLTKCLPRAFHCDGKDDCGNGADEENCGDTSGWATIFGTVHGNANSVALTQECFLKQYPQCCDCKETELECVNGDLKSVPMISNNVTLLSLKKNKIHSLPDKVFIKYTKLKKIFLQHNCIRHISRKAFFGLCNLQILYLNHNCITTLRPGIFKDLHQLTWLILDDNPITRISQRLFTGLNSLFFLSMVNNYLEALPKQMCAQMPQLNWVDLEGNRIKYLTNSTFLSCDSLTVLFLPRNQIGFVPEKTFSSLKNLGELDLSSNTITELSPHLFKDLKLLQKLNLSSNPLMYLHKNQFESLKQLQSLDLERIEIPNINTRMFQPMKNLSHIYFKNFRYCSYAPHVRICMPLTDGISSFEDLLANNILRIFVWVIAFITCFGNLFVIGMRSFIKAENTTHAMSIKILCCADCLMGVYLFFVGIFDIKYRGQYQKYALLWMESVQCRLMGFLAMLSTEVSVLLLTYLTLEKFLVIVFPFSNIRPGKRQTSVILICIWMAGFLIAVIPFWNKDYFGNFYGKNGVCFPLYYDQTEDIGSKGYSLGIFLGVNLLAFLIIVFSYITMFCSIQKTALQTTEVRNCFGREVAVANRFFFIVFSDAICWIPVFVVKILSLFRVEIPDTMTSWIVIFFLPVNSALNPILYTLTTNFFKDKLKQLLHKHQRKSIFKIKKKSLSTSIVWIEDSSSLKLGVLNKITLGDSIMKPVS

LGR8 (RXFP2) [2] = biological target: T2, LGR8 (RXFP2); experiment: Competition binding against Europium-INSL3 on HEK-293T cells expressing LGR8

| pCRE-beta-gal reporter after 5 uM forskolin, CHO-K1 cells, % of Forskolin activity (LGR7 (RXFP1)) | pCRE-beta-gal reporter after 5 uM forskolin, CHO-K1 cells, % of Forskolin activity (LGR8 (RXFP2) [1]) | EC50, cell impedance dose response (ACEA RT-CES), transfected CHO-K1 cells (LGR7 (RXFP1)) [µM] | binding result (LGR8 (RXFP2) [2]) | Binder |
| --- | --- | --- | --- | --- |
| ~2 fold of Forskolin | ~2 fold of Forskolin |  |  | AYAAFSV-NH2 [Peptide P59-S-Amide (Amide)] |
|  |  | ~0.1 |  | B1 |
|  |  | ~0.3 | binds | GQKGQVGPPGAAVRRAYAAFSVGRRAYAAFSV (Free acid C-terminus) [Peptide P74C13V (free acid)] |
|  |  |  | binds | B2 |
